Source: patent US9731011B2, “Combination tumor treatment with drug-loaded, bispecific ligand-targeted minicells and interferon-gamma” (EnGeneIC Molecular Delivery Pty Ltd, priority 2013, dated 2017)

Legend:
Assay type in all cases: in vivo, athymic nude mice
[1] = tested on: human breast tumor xenografts (MDA-MB-468); assay: Human breast cancer (MDA-MB-468) xenograft, moderate tumors ~145 mm^3 (Example 3); conditions: start ~145 mm^3; i.v.; 1×10^9 minicells per dose; IFN-gamma 0.5×10^4 IU per dose; by day 30, six doses
Description: (§1) As described above, minicells were purified, packaged with doxorubicin, and targeted using single chain bispecific antibody with anti-O-polysaccharide and anti-EGFR specificities. Additionally, human breast cancer cells (MDA-MB-468; ATCC) were established as xenografts in nu/nu mice, and tumor volumes were measured, also as described.
The treatments commenced when the tumors reached a mean of ˜145 mm^3, and mice were randomized to four different groups of seven mice per group. All treatments were administered i.v. in a total volume of 100 μl. All minicell doses contained 1×10^9 minicells of the respective type.
The experiment was designed as follows: Group 1 (control) received sterile physiological saline only. Group 2 (control) received IFN-gamma (0.5×10^4 IU) per dose.

[2] = tested on: human breast tumor xenografts (MDA-MB-468); assay: Human breast cancer (MDA-MB-468) xenograft, large tumors ~250 mm^3 (Example 4); conditions: start ~250 mm^3; i.v.; 1×10^9 minicells per dose; IFN-gamma 0.5×10^4 IU per dose; by day 28, 3 doses
Description: as §1, with “doxorubicin” for “doxorubicin,”, “Human” for “Additionally, human”, “(MDA-MB-468)” for “(MDA-MB-468; ATCC)”, “described above.” for “described.”
The treatments were begun when the tumors reached a mean of ˜250 mm^3. As above, mice were randomized to four different groups of seven mice per group. The i.v. administration and minicell doses were as above, too.
The experiment was designed as follows. Group 1 (control) received sterile physiological saline only. Group 2 (control) received IFN-gamma (0.5×10^4 IU) per dose.

[3] = tested on: human alveolar adenocarcinoma tumor xenografts (A549); assay: Human alveolar adenocarcinoma (A549) xenograft, tumors ~285 mm^3 (Example 2); conditions: start ~285 mm^3; i.v.; 1×10^9 minicells per dose; IFN-gamma 0.5×10^4 IU per dose; by day 43, six doses
From the text: As described above, minicells were produced from an S. typhimurium minCDE-mutant strain and were purified using a gradient centrifugation/filamentation/filtration/endotoxin removal procedure previously described in MacDiarmid et al. (2007). The purified minicells were packaged with chemotherapeutic drug doxorubicin, also per MacDiarmid et al. (2007).
The bispecific antibody (BsAb) was a single polypeptide containing binding specificity respectively for S. typhimurium O-polysaccharide, present on minicells, and for human EGFR, overexpressed on alveolar adenocarcinoma cells. The O-polysaccharide specificity was derived from a mouse monoclonal antibody, for which the variable regions were isolated from a hybridoma cell line and presented as a single-chain variable fragment (scFv). The hybridoma cell line was prepared by immunizing mice with purified LPS and fusing the lymphocytes with tumor cells. Subsequently, the clones were screened for an antibody capable of binding the O-polysaccharide. The EGFR specificity, also presented as an scFv, was derived from the commercial antibody Erbitux® (Bristol Myers Squibb, USA). […]
The resulting tumors were measured twice a week, using an electronic digital caliper (Mitutoyo, Japan, with a measure accuracy of +/−0.001 inch), and mean tumor volume was calculated using the formula length (mm)×width (mm^2)×0.5=volume (mm^3). […]

Measured: anti-tumor effect (tumor volume)

B1: IFN-gamma: interferon-gamma protein; given i.v. to mice, or endogenous serum level in dogs (protein, UniProt P01580 23-155, looked up)
Interferon gamma: HGTVIESLESLNNYFNSSGIDVEEKSLFLDIWRNWQKDGDMKILQSQIISFYLRLFEVLKDNQAISNNISVIESHLITTFFSNSKAKKDAFMSIAKFEVNNPQVQRQAFNELIRVVHQLLPESSLRKRKRSRC
no anti-tumor efficacy: all assays above
